{"source": "paper PMC10802454", "molecular_target": "AriA (Escherichia coli strain B185)", "assay": "cryo-EM structure", "data": [{"substance": "AriA (natural protein)", "values": [{"measurement": "stoichiometry N", "value": 6}]}]}
